Assay results as given in PMC6315105 (Cell Reports, 2018).

B1: Fab fragment of RV-Gn1 (Fab, V domains shown)
VH: TGSLEESGGRLVTPGTPLTLTCTVSGIDPNSDHMSWVRQAPGKGLEWIAIIYASGTTYYASWAKGRFTISKTSTTVDLRIASPTTEDTATYFCATYPNYPTDNLWGQGTLVTVSG
VL: TGMTQTPSPVSAAVGGTVTINCQASQSVYNNYLLSWYQQKPGQPPKRLIYSASTLASGVSSRFKGSGSGTQFTLTISDVQCDDAATYYCLGSYDGNSADCLAFGGGTEVVVK
notes: also called RV-Gn1 Fab; Fab RV-Gn1
B2: RV-Gn1 (full-length rabbit IgG) (antibody, V domains shown)
VH: QSLEESGGRLVTPGTPLTLTCTVSGIDPNSDHMSWVRQAPGKGLEWIAIIYASGTTYYASWAKGRFTISKTSTTVDLRIASPTTEDTATYFCATYPNYPTDNLWGQGTLVTVSS
VL: B1 VL
notes: also called RVFV-Gn1; source: rabbit hybridoma supernatant, purified (Protein G)

Experiments:
[1] = target: RVFV Gn (crystallization construct) (Rift Valley fever virus, UniProt P21401); assay: SEC; conditions: both partners purified
[2] = target: SFTSV Gn glycoprotein (residues 20-341) (Severe fever with thrombocytopenia …, UniProt R4V2Q5); assay: ELISA; conditions: both partners purified
Sequence of SFTSV Gn glycoprotein (residues 20-341) (R4V2Q5 whole entry, looked up, the tested form may be a part): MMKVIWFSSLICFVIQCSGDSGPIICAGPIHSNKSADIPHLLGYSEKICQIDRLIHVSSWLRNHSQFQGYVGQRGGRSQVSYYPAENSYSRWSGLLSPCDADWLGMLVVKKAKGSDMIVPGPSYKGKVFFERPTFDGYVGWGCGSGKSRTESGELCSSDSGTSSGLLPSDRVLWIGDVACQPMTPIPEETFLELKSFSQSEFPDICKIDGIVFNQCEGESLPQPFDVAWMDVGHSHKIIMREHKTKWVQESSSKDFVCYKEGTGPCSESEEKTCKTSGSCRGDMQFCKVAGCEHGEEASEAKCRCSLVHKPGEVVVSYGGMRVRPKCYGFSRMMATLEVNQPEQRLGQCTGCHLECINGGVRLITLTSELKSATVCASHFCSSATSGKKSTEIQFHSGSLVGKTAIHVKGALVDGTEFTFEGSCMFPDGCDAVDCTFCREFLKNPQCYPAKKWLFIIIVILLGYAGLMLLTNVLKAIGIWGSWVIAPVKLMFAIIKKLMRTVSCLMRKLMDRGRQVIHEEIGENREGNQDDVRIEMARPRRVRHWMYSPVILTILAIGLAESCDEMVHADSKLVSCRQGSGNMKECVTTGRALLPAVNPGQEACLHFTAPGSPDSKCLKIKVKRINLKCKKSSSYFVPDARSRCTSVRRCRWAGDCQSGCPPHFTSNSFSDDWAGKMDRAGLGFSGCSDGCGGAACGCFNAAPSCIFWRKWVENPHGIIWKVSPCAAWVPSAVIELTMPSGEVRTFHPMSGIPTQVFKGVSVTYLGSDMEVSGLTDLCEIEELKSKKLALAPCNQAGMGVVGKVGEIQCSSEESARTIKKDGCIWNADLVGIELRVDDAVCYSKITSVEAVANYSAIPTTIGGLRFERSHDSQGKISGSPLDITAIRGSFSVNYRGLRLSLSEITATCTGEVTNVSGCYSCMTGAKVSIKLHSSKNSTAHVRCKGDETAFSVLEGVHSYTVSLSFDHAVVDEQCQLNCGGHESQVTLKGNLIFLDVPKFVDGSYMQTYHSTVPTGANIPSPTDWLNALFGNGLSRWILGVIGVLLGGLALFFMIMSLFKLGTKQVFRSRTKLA

Sequence of RVFV Gn (crystallization construct) (P21401 168-483): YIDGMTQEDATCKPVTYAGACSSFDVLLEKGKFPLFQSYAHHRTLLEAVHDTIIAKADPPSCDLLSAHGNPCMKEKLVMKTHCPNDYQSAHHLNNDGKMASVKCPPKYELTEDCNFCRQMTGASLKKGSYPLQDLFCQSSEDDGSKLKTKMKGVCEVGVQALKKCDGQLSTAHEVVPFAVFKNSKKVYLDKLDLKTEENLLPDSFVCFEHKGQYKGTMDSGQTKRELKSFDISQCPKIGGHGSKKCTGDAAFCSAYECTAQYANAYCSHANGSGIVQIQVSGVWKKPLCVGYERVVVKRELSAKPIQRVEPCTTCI

Row | Binder | stoichiometry N [1] | binding result [2]
1 | B1 | 1 | 
2 | B2 |  | no binding (tested: 10μg/ml)
